The data set deals with the molecule itself. Nature of the data set: X-ray crystal structure (self-association of subunits). From the text:
Native data, to 2.2 Å resolution, were collected at station 9.6 of the S.R.S. Daresbury, from crystals frozen at liquid nitrogen temperatures in a cryo-protecting solution comprising of mother liquor plus 20% glycerol. The structure was solved by multiple isomorphous replacement with anomalous scattering using three heavy atom derivatives. Table 1 details data collection and heavy atom statistics; the HKL package (Otwinowski, Z & Minor, W (1997) Methods Enzymol 276, 307-326), and the CCP4 (Acta Crystallogr D 50 (1994) 760-763) software suite were used for data processing and analysis. Heavy atom positions were derived from difference Patterson and difference Fourier calculations. The SHARP program (Fortelle E. d. -L. & Bricogne, G. (1997) Methods Enzymol 276, 472-494) was used to refine the heavy atom parameters and obtain initial phases, further heavy atom sites were identified from the residual map analysis available in SHARP. […]
The initial model of AMPDA was traced using the QUANTA package (Molecular Simulations Inc) and refined using all data to 2.2 Å with X-PLOR (Briinger, A. T. (1993) X-PLOR Version 3.1 A system for X-ray crystallography and NMR, Yale University Press, New Haven, Conn.). […] The current model has a Rcryst=21.2% and a Rfree=25.4%, calculated on 5% of the data set (Branger, A. T. (1992) Nature 355, 472-475).

B1: rabbit AMP deaminase (AMPDA) catalytic domain, starting at Leu96 (enzyme)
chain: LSHIDEYISLSPTYQTVPDFQRVQITGDYASGVTVEDFEIVCKGLYRALCIREKYMLKSFQRFPKTPSKYLRSIEGTAWKANESSYPVFTPALKKGEDPFRTDNLPENLGYHLKMKDGVVYIYANEAAAGKDEPKPLLYPNMEEFLDDMNFLLALIAQGPVKTYTHRRLKFLSSKFQVHQMLNEMDELKELKNNPHRDFYNCRKVDTHIHAAACMNQKHLLRFIKKSYQVDADRVVYSTKEKNLTLKQLFDKLKLHPYDLTVDSLDVHAGRQTFQRFDKFNDKYNPVGASELRDLYLKTDNYINGEYFATIIKEVGADLVDAKYQHAEPRLSIYGRSPDEWSKLSSWFVRNRIYSSNMTWMIQVPRIYDVFRSKNFLPHFGKMLENVFMPVFEATINPQAHPELSVFLKHITGFDSVDDESKHSGHMFSSKSPKPQEWTLEKNPSYTYYAYYMYANIMVLNSLRKERGMNTFLFRPHCGEVGALTHLMTAFMTADNISHGLNLKKSPVLQYLFFLAQIPIAMSPLSNNSLFLEYAKNPFLDFLQKGLMISLSTDDPMQFHFTKEPLMEEYAIAAQVFKLSTCDMCEVARNSVLQCGISHEEKAKFLGNNYLEEGPIGNDIRKTNVAQIRMAYRYETWCYELNLIAEGLKSTE
notes: Purified from rabbit skeletal muscle; also called rabbit AMPDA; truncated enzyme
Turning to B1, the binding result is given as “binds”.

The record behind these values is patent publication US20040050316A1 (published 2004).
